We go through two substances from article PMC4479991.

The target in data set [1] is zif268 (EGR1 DNA-binding domain), cleaved (UniProt P08046). Put plainly: solid-state nanopore. The conditions noted are these: EMSA: binding on ice, at least 1 h, native PAGE 8% (oligos) or 3.5% (1 kb), salt up to 1 M KCl; nanopore: 1 M KCl, 30 min incubation at 200:1 protein:DNA; pH …. In general terms: Mobility shift assays separate free from complexed probe on a gel.

In data set [2] the target is zif268_GST (uncleaved fusion) (UniProt P08046). Put plainly: EMSA. The conditions noted are these: EMSA: binding on ice, at least 1 h, native PAGE 8% (oligos) or 3.5% (1 kb), salt up to 1 M KCl; nanopore: 1 M KCl, 30 min incubation at 200:1 protein:DNA; pH ….

As to (-)DNA 960 bp, the binding signal (% ABA (specifically bound) events) in data set [1] was found to be 4.3. Take “CGTCAGGGCAAGCCTTATTCACTGAATGAGCAGCTTTGTTACGTTGATTTGGGTAATGAATATCCGGTTCTTGTCAAGATTACTCTTGATGAAGGTCAGCCAGCCTATGCGCCTGGTCTGTACACCGTTCATCTGTCCTCTTTCAAAGTTGGTCAGTTCGGTTCCCTTATGATTGACCGTCTGCGCCTCGTTCCGGCTAAGTAACATGGAGCAGGTCGCGGATTTCGACACAATTTATCAGGCGATGATACAAATCTCCGTTGTACTTTGTTTCGCGCTTGGTATAATCGCTGGGGGTCAAAGATGAGTGTTTTAGTGTATTCTTTCGCCTCTTTCGTTTTAGGTTGGTGCCTTCGTAGTGGCATTACGTATTTTACCCGTTTAATGGAAACTTCCTCATGAAAAAGTCTTTAGTCCTCAAAGCCTCTGTAGCCGTTGCTACCCTCGTTCCGATGCTGTCTTTCGCTGCTGAGGGTGACGATCCCGCAAAAGCGGCCTTTAACTCCCTGCAAGCCTCAGCGACCGAATATATCGGTTATGCGTGGGCGATGGTTGTTGTCATTGTCGGCGCAACTATCGGTATCAAGCTGTTTAAGAAATTCACCTCGAAAGCAAGCTGATAAACCGATACAATTAAAGGCTCCTTTTGGAGCCTTTTTTTTTGGAGATTTTCAACGTGAAAAAATTATTATTCGCAATTCCTTTAGTTGTTCCTTTCTATTCTCACTCCGCTGAAACTGTTGAAAGTTGTTTAGCAAAACCCCATACAGAAAATTCATTTACTAACGTCTGGAAAGACGACAAAACTTTAGATCGTTACGCTAACTATGAGGGTTGTCTGTGGAATGCTACAGGCGTTGTAGTTTGTACTGGTGACGAAACTCAGTGTTACGGTACATGGGTTCCTATTGGGCTTGCTATCCCTGAAAATGAGGGTGGTGGCTCTGAGGGTGGCGGTTCTGAGGGTGGCGGTTCTGAGGGTGGCGGTACTAAACCTCCTGAGTACGGT (double strand) [(+)DNA 1009 bp]”: in data set [1], the binding signal (% ABA (specifically bound) events) turned out to be 11.5. In addition, the binding signal (% bound at 1:250 DNA:protein) in data set [2] amounted to 50.
